In patent US20150344570A1 (published 2015):

T1: FcγRIIa R (human, UniProt P12318 34-217)
T1 construct: extracellular domain; also called FcgRIIa R type; 2aR
T1 sequence (looked up): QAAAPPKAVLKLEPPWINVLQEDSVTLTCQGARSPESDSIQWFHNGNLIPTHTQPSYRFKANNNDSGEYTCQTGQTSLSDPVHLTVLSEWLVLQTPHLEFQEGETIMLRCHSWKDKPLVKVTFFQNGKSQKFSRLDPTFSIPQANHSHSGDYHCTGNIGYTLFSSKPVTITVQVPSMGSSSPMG

T2: FcγRIIb (human, UniProt P31994 43-217)
T2 construct: extracellular domain; also called FcgRIIb; 2b
T2 sequence (looked up): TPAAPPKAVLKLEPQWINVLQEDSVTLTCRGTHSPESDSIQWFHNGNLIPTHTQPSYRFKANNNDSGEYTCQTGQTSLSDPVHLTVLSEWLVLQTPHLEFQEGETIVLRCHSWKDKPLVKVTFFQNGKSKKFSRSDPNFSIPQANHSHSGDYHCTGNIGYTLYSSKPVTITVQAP

B1: GpH7-A5/GpH7-B3 variant S267_14T/GpL16-k0 (antibody, human IgG1, kappa)
heavy 1: not shown
heavy 2: not shown
light: DIVMTQSPLSLPVTPGEPASISCQASESLVHSNRNTYLHWYLQKPGQSPQLLIYKVSNRFSGVPDRFSGSGSGTDFTLKISRVEAEDVGVYYCSQNTHVPPTFGQGTKVEIERTVAAPSVFIFPPSDEQLKSGTASVVCLLNNFYPREAKVQWKVDNALQSGNSQESVTEQDSKDSTYSLSSTLTLSKADYEKHKVYACEVTHQGLSSPVTKSFNRGEC
notes: Alteration in one H chain only; also called He Ab S267_14T
B2: GpH7-A5/GpH7-B3 variant D265_14T/GpL16-k0 (antibody, human IgG1, kappa)
heavy 1: not shown
heavy 2: not shown
light: B1 light
notes: heterodimerized anti-glypican-3 IgG1; alteration in one H chain only; also called He Ab
B3: GpH7-A5/GpH7-B3 variant D265_16H/GpL16-k0 (antibody, human IgG1, kappa)
heavy 1: not shown
heavy 2: not shown
light: B1 light
notes: as for B2
B4: GpH7-A5/GpH7-B3 variant D265_13S/GpL16-k0 (antibody, human IgG1, kappa)
heavy 1: not shown
heavy 2: not shown
light: B1 light
notes: as for B2
B5: GpH7-A5/GpH7-B3 variant S337_16H/GpL16-k0 (antibody, human IgG1, kappa)
heavy 1: not shown
heavy 2: not shown
light: B1 light
notes: Alteration in one H chain only; also called He Ab S337_16H
B6: GpH7-A5/GpH7-B3 variant Y300_16H/GpL16-k0 (antibody, human IgG1, kappa)
heavy 1: not shown
heavy 2: not shown
light: B1 light
notes: Alteration in one H chain only; also called He Ab Y300_16H
B7: GpH7-A5/GpH7-B3 variant P271_10E/GpL16-k0 (antibody, human IgG1, kappa)
heavy 1: not shown
heavy 2: not shown
light: B1 light
notes: Alteration in one H chain only; also called He Ab P271_10E
B8: GpH7-A5/GpH7-B3 variant S337_14T/GpL16-k0 (antibody, human IgG1, kappa)
heavy 1: not shown
heavy 2: not shown
light: B1 light
notes: Alteration in one H chain only; also called He Ab S337_14T
B9: GpH7-A5/GpH7-B3 variant T335_02A/GpL16-k0 (antibody, human IgG1, kappa)
heavy 1: not shown
heavy 2: not shown
light: B1 light
notes: Alteration in one H chain only; also called He Ab T335_02A
B10: GpH7-A5/GpH7-B3 variant P271_19Q/GpL16-k0 (antibody, human IgG1, kappa)
heavy 1: not shown
heavy 2: not shown
light: B1 light
notes: Alteration in one H chain only; also called He Ab P271_19Q
B11: GpH7-A5/GpH7-B3 variant T335_01G/GpL16-k0 (antibody, human IgG1, kappa)
heavy 1: not shown
heavy 2: not shown
light: B1 light
notes: Alteration in one H chain only; also called He Ab T335_01G
B12: GpH7-A5/GpH7-B3 variant T335_13S/GpL16-k0 (antibody, human IgG1, kappa)
heavy 1: not shown
heavy 2: not shown
light: B1 light
notes: Alteration in one H chain only; also called He Ab T335_13S
B13: GpH7-A5/GpH7-B3 variant L328_12R/GpL16-k0 (antibody, human IgG1, kappa)
heavy 1: not shown
heavy 2: not shown
light: B1 light
notes: He Ab; mutation in the GpH7-B3 chain only; also called He Ab
B14: GpH7-A5/GpH7-B3 variant S267_10E/GpL16-k0 (antibody, human IgG1, kappa)
heavy 1: not shown
heavy 2: not shown
light: B1 light
notes: Alteration in one H chain only; also called He Ab S267_10E
B15: GpH7-A5/GpH7-B3 variant D265_18N/GpL16-k0 (antibody, human IgG1, kappa)
heavy 1: not shown
heavy 2: not shown
light: B1 light
notes: as for B2
B16: GpH7-A5/GpH7-B3 variant Q295_10E/GpL16-k0 (antibody, human IgG1, kappa)
heavy 1: not shown
heavy 2: not shown
light: B1 light
notes: Alteration in one H chain only; also called He Ab Q295_10E
B17: GpH7-A5/GpH7-B3 variant S337_18N/GpL16-k0 (antibody, human IgG1, kappa)
heavy 1: not shown
heavy 2: not shown
light: B1 light
notes: Alteration in one H chain only; also called He Ab S337_18N
B18: GpH7-A5/GpH7-B3 variant D265_19Q/GpL16-k0 (antibody, human IgG1, kappa)
heavy 1: not shown
heavy 2: not shown
light: B1 light
notes: as for B2
B19: GpH7-A5/GpH7-B3 variant D265_11K/GpL16-k0 (antibody, human IgG1, kappa)
heavy 1: not shown
heavy 2: not shown
light: B1 light
notes: as for B2
B20: GpH7-A5/GpH7-B3 variant Y296_07I/GpL16-k0 (antibody, human IgG1, kappa)
heavy 1: not shown
heavy 2: not shown
light: B1 light
notes: Alteration in one H chain only; also called He Ab Y296_07I

Assays:
FcγRIa [1] = biological target: T3, FcγRIa (human, UniProt P12314 16-292); assay: SPR (Biacore), relative binding; control HeCon Ab GpH7-A5/GpH7-B3/GpL16-k0
T3 construct: extracellular domain; also called FcgRI; FcgRIa; not shown: His tag attached to the C terminus
T3 sequence (P12314 16-292): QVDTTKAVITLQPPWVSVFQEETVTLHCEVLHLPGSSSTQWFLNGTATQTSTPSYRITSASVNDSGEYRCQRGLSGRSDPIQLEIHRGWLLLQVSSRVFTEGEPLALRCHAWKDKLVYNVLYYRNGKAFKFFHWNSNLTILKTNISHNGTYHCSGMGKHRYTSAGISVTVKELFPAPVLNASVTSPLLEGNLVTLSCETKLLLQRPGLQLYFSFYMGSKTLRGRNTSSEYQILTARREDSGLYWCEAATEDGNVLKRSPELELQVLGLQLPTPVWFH

FcγRIIa R [2] = biological target: T1, FcγRIIa R; assay: SPR (Biacore), captured antibody, FcγR as analyte; relative binding, control GpH7-A5/GpH7-B3/GpL16-k0 = 100
Method: (§1) The heterodimerized antibodies He Abs in which one of the H chains was introduced with an alteration were assayed for their binding activities to each activating FcγR and inhibitory FcγR according to the method described in Example 4. […] The activating FcγRs in FIGS. 26, 27, 28, and 29 are FcγRIa, FcγRIIa (R), FcγRIIa (H), and FcγRIIIa, respectively.
(§2) Analysis of interaction between objective antibody and the FcγR was carried out using Biacore T100 (GE Healthcare). HBS-EP+ (GE Healthcare) was used as the running buffer, and the measurement temperature was set to 25° C. Chips produced by immobilizing the antigen peptide by the amine coupling method to a Series S Sencor Chip CM5 (GE Healthcare), or alternatively, chips produced by allowing preliminarily biotinylated antigen peptides to interact with and immobilize onto a Series S Sensor Chip SA (certified) (GE Healthcare) were used. Antibodies of interest were captured onto an antigen peptide-immobilized chip, and allowed to interact to each FcγR diluted with running buffer. To regenerate and repeatedly use the chip, the antibodies captured on the chip were washed off by reacting 10 mM glycine-HCl, pH 1.5.

FcγRIIb = biological target: T2, FcγRIIb; assay: as above
Method: as §1, §2

FcγRIIa R [3] = biological target: T1, FcγRIIa R; assay: SPR (Biacore); He/Con_2aR divided by He/Con_2b (FcγRIIa R over FcγRIIb)
FcγRIa [4] = biological target: T4, FcγRIa (human, UniProt P12314 16-292); assay: ratio of He/Con_1a to He/Con_2b (FcγRIa over FcγRIIb), SPR
T4 construct: extracellular domain; also called FcgRI; CD64
Method: as §1, §2
T4 sequence (P12314 16-292): as above

FcγRIa [5] = biological target: T4, FcγRIa; assay: SPR (Biacore), captured antibody, soluble FcγR; relative to GpH7-A5/GpH7-B3/GpL16-k0 = 100
Method: as §1, §2

Row | Binder | He/Con_1a (FcγRIa [1]) | He/Con_2aR (FcγRIIa R [2]) | He/Con_2b (FcγRIIb) | He_2aR/2b (IIaR/IIb) (FcγRIIa R [3]) | also measured
1 | B1 | 102 % of control (=100) |  |  |  | 
2 | B2 |  | 25.8 control = 100 | 16 control = 100 | 1.61 ratio | 
3 | B3 |  | 58 control = 100 | 38.3 control = 100 | 1.51 ratio | 
4 | B4 |  | 20.5 control = 100 | 11.3 control = 100 | 1.81 ratio | 
5 | B5 | 105 % of control (=100) |  |  |  | 
6 | B6 | 111 % of control (=100) |  |  |  | 
7 | B7 | 103 % of control (=100) |  |  |  | 
8 | B8 | 105 % of control (=100) |  |  |  | 
9 | B9 | 103 % of control (=100) |  |  |  | 
10 | B10 | 103 % of control (=100) |  |  |  | 
11 | B11 | 104 % of control (=100) |  |  |  | 
12 | B12 | 105 % of control (=100) |  |  |  | 
13 | B13 |  |  |  |  | He_1a/2b (Ia/IIb) (FcγRIa [4]): 8.51; He/Con_1a (FcγRIa [5]): 78.6 % of control
14 | B14 | 106 % of control (=100) |  |  |  | 
15 | B15 |  | 12.4 control = 100 | 6.1 control = 100 | 2.02 ratio | 
16 | B16 | 103 % of control (=100) |  |  |  | 
17 | B17 | 105 % of control (=100) |  |  |  | 
18 | B18 |  | 54.8 control = 100 | 33.4 control = 100 | 1.64 ratio | 
19 | B19 |  | 33.7 control = 100 | 14.9 control = 100 | 2.26 ratio | 
20 | B20 | 104 % of control (=100) |  |  |  | 
